Experimental data reported in the supplement of paper PMC9112550, “Optimization of the antimicrobial peptide Bac7 by deep mutational scanning” (BMC Biology, 2022).

tested on: Escherichia coli TOP10; test: shrunken log2 fold change of peptide-encoding DNA abundance (4.5 h post-induction vs induction); higher = less antimicrobial activity (less host growth inhibition); details: time post-induction: 4.5 h; library: site-saturation at positions 5, 18, 19, 20
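Further: peptides expressed intracellularly from a pBAD plasmid library in pooled LB shake-flask culture, induced with 0.3% L-arabinose, DNA abundance read by NGS, three biological replicates, DESeq2 with apeglm shrinkage.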

Point of comparison: RRIRSRPPRLPRPRPRPMDQPRP, “shrunken log2 fold change” value 0.362. Against it:
- RRIRTRPPRLPRPRPRPRWGPRP — within 0.2 log units, 0.164
- RRIRSRPPRLPRPRPRPIPTPRP — within 0.2 log units, 0.2
- RRIRLRPPRLPRPRPRPSAAPRP — within 0.2 log units, 0.419
- RRIRRRPPRLPRPRPRPGLVPRP — within 0.2 log units, 0.279
- RRIRIRPPRLPRPRPRPVWKPRP — lower, 0.154
- RRIRIRPPRLPRPRPRPRMPPRP — lower, -0.0534
- RRIRMRPPRLPRPRPRPLCAPRP — higher, 1.24
- RRIRTRPPRLPRPRPRPIPFPRP — lower, -0.325
- RRIRGRPPRLPRPRPRPTLIPRP — within 0.2 log units, 0.337
- RRIRCRPPRLPRPRPRPYRLPRP — lower, -0.0743
- RRIRLRPPRLPRPRPRPQNQPRP — lower, -0.159
- RRIRSRPPRLPRPRPRPWIVPRP — lower, -0.127
- RRIRCRPPRLPRPRPRPREFPRP — within 0.2 log units, 0.339
- RRIRERPPRLPRPRPRPVSWPRP — within 0.2 log units, 0.368
- RRIRCRPPRLPRPRPRPRSVPRP — within 0.2 log units, 0.318
- RRIRPRPPRLPRPRPRPMAAPRP — within 0.2 log units, 0.208
- RRIRSRPPRLPRPRPRPALAPRP — within 0.2 log units, 0.419
- RRIRIRPPRLPRPRPRPDCVPRP — lower, -0.0493
- RRIRARPPRLPRPRPRPHMEPRP — lower, 0.157
- RRIRYRPPRLPRPRPRPRGIPRP — lower, -0.0542
- RRIRQRPPRLPRPRPRPRHAPRP — lower, -0.0685
- RRIRKRPPRLPRPRPRPQKMPRP — lower, 0.0795
- RRIRLRPPRLPRPRPRPDEIPRP — lower, -0.0542
- RRIRRRPPRLPRPRPRPNCFPRP — within 0.2 log units, 0.176
- RRIRGRPPRLPRPRPRPRGEPRP — higher, 1.04
- RRIRSRPPRLPRPRPRPKTEPRP — lower, -0.0689
- RRIRQRPPRLPRPRPRPDGVPRP — lower, -0.119
- RRIRWRPPRLPRPRPRPTFDPRP — within 0.2 log units, 0.273
- RRIRARPPRLPRPRPRPWETPRP — higher, 4.22
- RRIRCRPPRLPRPRPRPFLCPRP — lower, -0.786
- RRIRSRPPRLPRPRPRPRLHPRP — lower, 0.15
- RRIRSRPPRLPRPRPRPCYNPRP — lower, -0.513
- RRIRRRPPRLPRPRPRPVFWPRP — within 0.2 log units, 0.369
- RRIRWRPPRLPRPRPRPQVTPRP — lower, -0.0309
- RRIRMRPPRLPRPRPRPRTKPRP — higher, 1.21
- RRIRGRPPRLPRPRPRPQEKPRP — lower, 0.0562
- RRIRIRPPRLPRPRPRPDGWPRP — lower, -0.279
- RRIRGRPPRLPRPRPRPNGPPRP — lower, -0.0411
- RRIRVRPPRLPRPRPRPKRKPRP — within 0.2 log units, 0.376
- RRIRQRPPRLPRPRPRPWWDPRP — lower, 0.00367
- RRIRLRPPRLPRPRPRPNLHPRP — lower, -0.347
- RRIRMRPPRLPRPRPRPKAPPRP — higher, 1.42
- RRIRDRPPRLPRPRPRPHCMPRP — lower, -0.24
- RRIRKRPPRLPRPRPRPVFEPRP — within 0.2 log units, 0.347
- RRIRFRPPRLPRPRPRPVYWPRP — lower, -0.195
- RRIRSRPPRLPRPRPRPVRFPRP — within 0.2 log units, 0.488
- RRIRYRPPRLPRPRPRPSYKPRP — lower, -1.22
- RRIRARPPRLPRPRPRPQYLPRP — lower, -0.204
- RRIRQRPPRLPRPRPRPPECPRP — lower, -0.0742
- RRIRFRPPRLPRPRPRPILMPRP — lower, -0.0682
- RRIRMRPPRLPRPRPRPCNEPRP — lower, -0.249
- RRIRPRPPRLPRPRPRPFNHPRP — lower, -0.304
- RRIRHRPPRLPRPRPRPKNVPRP — lower, -0.0354
- RRIRERPPRLPRPRPRPDGQPRP — lower, -0.388
- RRIRPRPPRLPRPRPRPYSHPRP — lower, -1.42
- RRIRYRPPRLPRPRPRPMIDPRP — lower, -0.00999
- RRIRMRPPRLPRPRPRPLKMPRP — lower, 0.146
- RRIRGRPPRLPRPRPRPVFGPRP — within 0.2 log units, 0.556
- RRIRARPPRLPRPRPRPIYHPRP — lower, -0.359
- RRIRKRPPRLPRPRPRPGYFPRP — lower, -0.0741
- RRIRSRPPRLPRPRPRPNKAPRP — lower, 0.0174
- RRIRARPPRLPRPRPRPPLPPRP — higher, 0.762
- RRIRMRPPRLPRPRPRPYQWPRP — lower, -0.055
- RRIRWRPPRLPRPRPRPYSMPRP — lower, -0.314
- RRIRQRPPRLPRPRPRPTHDPRP — higher, 0.911
- RRIRMRPPRLPRPRPRPFGMPRP — lower, -0.0241
- RRIRPRPPRLPRPRPRPDQWPRP — lower, -0.0215
- RRIRNRPPRLPRPRPRPNWCPRP — within 0.2 log units, 0.23
- RRIRLRPPRLPRPRPRPPYFPRP — lower, -0.247
- RRIRERPPRLPRPRPRPSVSPRP — lower, -0.335
- RRIRVRPPRLPRPRPRPIASPRP — within 0.2 log units, 0.171
- RRIRSRPPRLPRPRPRPHVRPRP — lower, 0.128
- RRIRERPPRLPRPRPRPKHNPRP — lower, -0.587
- RRIRRRPPRLPRPRPRPPEWPRP — within 0.2 log units, 0.539
